# Laboratory results taken from paper PMC6465399, “S-nitrosylation of the Peroxiredoxin-2 promotes S-nitrosoglutathione-mediated lung cancer cells apoptosis via AMPK-SIRT1 pathway” (Cell Death & Disease, 2019).
# B1: Peroxiredoxin-2 (enzyme, human (endogenous in A549), UniProt P32119 1-198, looked up)
# chain: MASGNARIGKPAPDFKATAVVDGAFKEVKLSDYKGKYVVLFFYPLDFTFVCPTEIIAFSNRAEDFRKLGCEVLGVSVDSQFTHLAWINTPRKEGGLGPLNIPLLADVTRRLSEDYGVLKTDEGIAYRGLFIIDGKGVLRQITVNDLPVGRSVDEALRLVQAFQYTDEHGEVCPAGWKPGSDTIKPNVDDSKEYFSKHN
# notes: Peroxiredoxin-2 (Prdx2), endogenous in human A549 lung cancer cells; three cysteines Cys51, Cys70, Cys172; The dimer seen on the non-reducing gel is the disulfide-linked (Cys51-Cys172) form; also called Prdx2; source: endogenous, A549 cells, in lysate
# Target: the molecule itself
# Assay: non-reducing SDS-PAGE and immunoblot (dimer/monomer detection); A549 cells untreated or treated with GSNO for 24 h; 100 mM N-ethyl maleimide for 20 min at 37 °C to preserve the Prdx2 redox state; nonreducing lysis buffer (100 mM Tris-HCl pH 6.8, 10% glycerol, 2% SDS) with 100 mM NEM; immunoblot for Prdx2
protein,measurement,value
B1,stoichiometry N,2
